According to paper PMC5932559, “Defective mitochondrial protease LonP1 can cause classical mitochondrial disease” (Human Molecular Genetics, 2018):

B4: p.(Glu733Lys) LonP1 mutant lacking the mitochondrial targeting sequence, C-terminal 6xHis (enzyme, human, UniProt P36776-1 115-959, looked up)
chain: MTIPDVFPHLPLIAITRNPVFPRFIKIIEVKNKKLVELLRRKVRLAQPYVGVFLKRDDSNESDVVESLDEIYHTGTFAQIHEMQDLGDKLRMIVMGHRRVHISRQLEVEPEEPEAENKHKPRRKSKRGKKEAEDELSARHPAELAMEPTPELPAEVLMVEVENVVHEDFQVTEEVKALTAEIVKTIRDIIALNPLYRESVLQMMQAGQRVVDNPIYLSDMGAALTGAESHELQDVLEETNIPKRLYKALSLLKKEFELSKLQQRLGREVEEKIKQTHRKYLLQEQLKIIKKELGLEKDDKDAIEEKFRERLKELVVPKHVMDVVDEELSKLGLLDNHSSEFNVTRNYLDWLTSIPWGKYSNENLDLARAQAVLEEDHYGMEDVKKRILEFIAVSQLRGSTQGKILCFYGPPGVGKTSIARSIARALNREYFRFSVGGMTDVAEIKGHRRTYVGAMPGKIIQCLKKTKTENPLILIDEVDKIGRGYQGDPSSALLELLDPEQNANFLDHYLDVPVDLSKVLFICTANVTDTIPEPLRDRMEMINVSGYVAQEKLAIAERYLVPQARALCGLDESKAKLSSDVLTLLIKQYCRESGVRNLQKQVEKVLRKSAYKIVSGEAKSVEVTPENLQDFVGKPVFTVERMYDVTPPGVVMGLAWTAMGGSTLFVETSLRRPQDKDAKGDKDGSLEVTGQLGEVMKESARIAYTFARAFLMQHAPANDYLVTSHIHLHVPEGATPKDGPSAGCTIVTALLSLAMGRPVRQNLAMTGEVSLTGKILPVGGIKEKTIAAKRAGVTCIVLPAENKKDFYDLAAFITEGLEVHFVEHYREIFDIAFPDEQAEALAVER
notes: A variant found in a patient and in ExAC; also called E733K; hGlu733Lys

Experiments:
[1] = target: T1, TFAM (UniProt Q00059 43-246, NT-547-maleimide dye on cysteine (for microscale thermophoresis)); assay: MST; 4 mM AMP-PNP
T1 chain: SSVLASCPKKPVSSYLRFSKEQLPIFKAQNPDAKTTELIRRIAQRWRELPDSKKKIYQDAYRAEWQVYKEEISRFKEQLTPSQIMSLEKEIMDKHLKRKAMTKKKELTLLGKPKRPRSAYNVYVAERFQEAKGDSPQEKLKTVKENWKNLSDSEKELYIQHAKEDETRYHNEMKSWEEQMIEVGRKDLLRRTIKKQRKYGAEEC

[2] = target: T2, wild-type LonP1 lacking the mitochondrial targeting sequence, C-terminal 6xHis (human, UniProt P36776-1 115-959); assay: MST; TFAM labelled with NT-547-maleimide, unlabelled LonP1 titrated (2.3-4650 nM); MST buffer (50 mM Tris-HCl pH 8.0, 10 mM MgCl2, 10% glycerol) without nucleotide; 24°C; Monolith NT.115; conditions: both partners purified
T2 construct: called the mature protein; Hexamer at low salt with ATP, mostly monomer in 1 M NaCl without ATP; also called WT; LonP1 wild-type; source: pET-20b, induced with 1 mM IPTG, purified (His-Select nickel, HiTrap Heparin, MonoQ, Superdex 200)
T2 sequence (looked up): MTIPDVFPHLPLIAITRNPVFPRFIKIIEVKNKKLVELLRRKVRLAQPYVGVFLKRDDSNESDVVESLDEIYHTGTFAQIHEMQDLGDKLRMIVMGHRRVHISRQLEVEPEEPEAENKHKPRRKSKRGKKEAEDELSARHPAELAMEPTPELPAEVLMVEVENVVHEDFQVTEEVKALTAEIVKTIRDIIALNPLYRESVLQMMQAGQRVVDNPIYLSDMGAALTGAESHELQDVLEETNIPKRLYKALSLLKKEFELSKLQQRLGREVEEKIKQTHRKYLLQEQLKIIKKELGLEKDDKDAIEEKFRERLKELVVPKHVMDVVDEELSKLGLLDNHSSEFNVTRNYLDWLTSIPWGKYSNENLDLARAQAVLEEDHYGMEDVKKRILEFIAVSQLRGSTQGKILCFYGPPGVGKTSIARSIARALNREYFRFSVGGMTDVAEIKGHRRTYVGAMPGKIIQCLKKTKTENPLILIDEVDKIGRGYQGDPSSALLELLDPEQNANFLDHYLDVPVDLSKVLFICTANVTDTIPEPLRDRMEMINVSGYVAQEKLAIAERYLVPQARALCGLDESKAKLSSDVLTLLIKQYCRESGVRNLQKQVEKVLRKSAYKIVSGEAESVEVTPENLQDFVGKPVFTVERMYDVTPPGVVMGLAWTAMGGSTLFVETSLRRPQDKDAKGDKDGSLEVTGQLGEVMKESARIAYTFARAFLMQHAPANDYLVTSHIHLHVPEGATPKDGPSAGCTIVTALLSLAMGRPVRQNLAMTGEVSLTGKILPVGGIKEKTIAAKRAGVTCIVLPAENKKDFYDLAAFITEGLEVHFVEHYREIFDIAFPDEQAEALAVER

[3] = target: B4; assay: as above; conditions: both partners purified
[4] = target: T3, 1:1 mixture of wild-type and p.(Tyr565His) LonP1, oligomerised by dialysis from high salt (human, UniProt P36776-1 115-959; P36776-1 115-959, p.(Tyr565His)); assay: MST; as a3, with 4 mM AMP-PNP; LonP1 forms or 1:1 mixtures titrated (2.3-4650 nM) against labelled TFAM; 24°C; conditions: both partners purified
T3 construct: as the chain of m1; as the chain of m2; also called WT/Y565H; WT + Y565H; source: equimolar purified LonP1 forms mixed in high salt, oligomerised by dialysis

[5] = target: T4, 1:1 mixture of wild-type and p.(Glu733Lys) LonP1, oligomerised by dialysis from high salt (human, UniProt P36776-1 115-959; P36776-1 115-959, p.(Glu733Lys)); assay: as above; conditions: both partners purified
T4 construct: as the chain of m1; as the chain of m3; The make-up of the oligomers (heterohexamers or separate homohexamers) was not determined; also called WT/E733K; WT + E733K; source: equimolar purified LonP1 forms mixed in high salt, oligomerised by dialysis

[6] = target: the molecule itself; assay: SEC; Superose 6 Increase 10/300; 20 mM Tris-HCl pH 8.0, 10% glycerol, 2 mM DTT, 50 mM NaCl, 10 mM MgCl2, samples incubated 10 min at 37°C with ATP (1 mM in the methods, 4 mM in the legend); fractions on SDS-PAGE, size calibration curve; in 1 M NaCl without ATP higher-order oligomers were largely prevented

B1: wild-type LonP1 lacking the mitochondrial targeting sequence, C-terminal 6xHis (enzyme)
chain: MTIPDVFPHLPLIAITRNPVFPRFIKIIEVKNKKLVELLRRKVRLAQPYVGVFLKRDDSNESDVVESLDEIYHTGTFAQIHEMQDLGDKLRMIVMGHRRVHISRQLEVEPEEPEAENKHKPRRKSKRGKKEAEDELSARHPAELAMEPTPELPAEVLMVEVENVVHEDFQVTEEVKALTAEIVKTIRDIIALNPLYRESVLQMMQAGQRVVDNPIYLSDMGAALTGAESHELQDVLEETNIPKRLYKALSLLKKEFELSKLQQRLGREVEEKIKQTHRKYLLQEQLKIIKKELGLEKDDKDAIEEKFRERLKELVVPKHVMDVVDEELSKLGLLDNHSSEFNVTRNYLDWLTSIPWGKYSNENLDLARAQAVLEEDHYGMEDVKKRILEFIAVSQLRGSTQGKILCFYGPPGVGKTSIARSIARALNREYFRFSVGGMTDVAEIKGHRRTYVGAMPGKIIQCLKKTKTENPLILIDEVDKIGRGYQGDPSSALLELLDPEQNANFLDHYLDVPVDLSKVLFICTANVTDTIPEPLRDRMEMINVSGYVAQEKLAIAERYLVPQARALCGLDESKAKLSSDVLTLLIKQYCRESGVRNLQKQVEKVLRKSAYKIVSGEAESVEVTPENLQDFVGKPVFTVERMYDVTPPGVVMGLAWTAMGGSTLFVETSLRRPQDKDAKGDKDGSLEVTGQLGEVMKESARIAYTFARAFLMQHAPANDYLVTSHIHLHVPEGATPKDGPSAGCTIVTALLSLAMGRPVRQNLAMTGEVSLTGKILPVGGIKEKTIAAKRAGVTCIVLPAENKKDFYDLAAFITEGLEVHFVEHYREIFDIAFPDEQAEALAVER
B1 gave a Kd [1] of 2200 nM.

B2: TFAM (natural protein, UniProt Q00059 43-246, looked up)
chain: SSVLASCPKKPVSSYLRFSKEQLPIFKAQNPDAKTTELIRRIAQRWRELPDSKKKIYQDAYRAEWQVYKEEISRFKEQLTPSQIMSLEKEIMDKHLKRKAMTKKKELTLLGKPKRPRSAYNVYVAERFQEAKGDSPQEKLKTVKENWKNLSDSEKELYIQHAKEDETRYHNEMKSWEEQMIEVGRKDLLRRTIKKQRKYGAEEC
modifications: NT-547-maleimide dye on cysteine (for microscale thermophoresis)
notes: TFAM, the mitochondrial transcription and mtDNA packaging factor and a LonP1 substrate; recombinant; It was unlabelled in the proteolysis assays; also called TFAM substrate
B2 showed a Kd [2] of 1360 nM, a Kd [3] of 1520 nM and a Kd [4] of 3220 nM. The Kd [5] was 2170 nM.

B3: p.(Tyr565His) LonP1 mutant lacking the mitochondrial targeting sequence, C-terminal 6xHis (enzyme, human, UniProt P36776-1 115-959, looked up)
chain: MTIPDVFPHLPLIAITRNPVFPRFIKIIEVKNKKLVELLRRKVRLAQPYVGVFLKRDDSNESDVVESLDEIYHTGTFAQIHEMQDLGDKLRMIVMGHRRVHISRQLEVEPEEPEAENKHKPRRKSKRGKKEAEDELSARHPAELAMEPTPELPAEVLMVEVENVVHEDFQVTEEVKALTAEIVKTIRDIIALNPLYRESVLQMMQAGQRVVDNPIYLSDMGAALTGAESHELQDVLEETNIPKRLYKALSLLKKEFELSKLQQRLGREVEEKIKQTHRKYLLQEQLKIIKKELGLEKDDKDAIEEKFRERLKELVVPKHVMDVVDEELSKLGLLDNHSSEFNVTRNYLDWLTSIPWGKYSNENLDLARAQAVLEEDHYGMEDVKKRILEFIAVSQLRGSTQGKILCFYGPPGVGKTSIARSIARALNREYFRFSVGGMTDVAEIKGHRRTHVGAMPGKIIQCLKKTKTENPLILIDEVDKIGRGYQGDPSSALLELLDPEQNANFLDHYLDVPVDLSKVLFICTANVTDTIPEPLRDRMEMINVSGYVAQEKLAIAERYLVPQARALCGLDESKAKLSSDVLTLLIKQYCRESGVRNLQKQVEKVLRKSAYKIVSGEAESVEVTPENLQDFVGKPVFTVERMYDVTPPGVVMGLAWTAMGGSTLFVETSLRRPQDKDAKGDKDGSLEVTGQLGEVMKESARIAYTFARAFLMQHAPANDYLVTSHIHLHVPEGATPKDGPSAGCTIVTALLSLAMGRPVRQNLAMTGEVSLTGKILPVGGIKEKTIAAKRAGVTCIVLPAENKKDFYDLAAFITEGLEVHFVEHYREIFDIAFPDEQAEALAVER
notes: A variant found in a patient and in ExAC; also called Y565H; hTyr565His
With B3 the “stoichiometry N” value [6] was 6.

B4 was tested, and the “stoichiometry N” value [6] was 6.
